B1: 2C12 (antibody, V domains shown)
VH: QITLRESGPTLVKPTQTLTLTCTFSGFSLNTNGVGVGWIRQPPGKALEWLALIYWNGNEGYSPSLKSRLTITKDTSKNQVVLTMTNMDPVDTATYYCVHWPQGLTTVTRLAFDIWGQGTMVTVSS
VL: QSALTQPRSVSGSPGQSVTISCTGTTSDVGRYNFVSWYQQHPGKAPKLLMYDVSQRPSGVPSRFSGSKSGNTASLTISGLQAEDEAVFYCCSYAGGNFFSYVFGTGTKVTVL
notes: human IgG mAb; also called 2C12-biotin
B2: 7B13 (antibody, V domains shown)
VH: QVQLVESGGGVVQPGGSLRLSCAASGFSFSNYGMHWVRQAPGKGLEWVALIPSDGNYQYYTDSVKGRFTVSRDNSRNTLYLQMKSLRAEDTARYHCAHLGGGLFDFWGQGTLVTVSS
VL: QSALNQPRSVSGSPGQSVSISCTGSSSDVGGYEFVSWYQHHPGKAPKLIIYDVDKRPSGVPDRFSGSRSGDTASLTISGLQAEDEADYYCYSSADTWVFGGGTKLTVL
notes: human IgG mAb
B3: 7I13 (antibody, V domains shown)
VH: QVQLVESGGGVVQPGRSLRLSCAASGFTFSNYGMHWVRQGPGKGLEWVAVISYDASSKYYTDSVQGRFTISRDNSKNTLFLQMNSLRGEDTAVYYCAKALRYLDWFLSDPFDYWGQGTLVTVSS
VL: EIVLTQSPGTLSLSPGERATLSCRASQSVSSDFLAWYQQKPGQAPRLLIYGASSRATGIPDRFSGSGSGTDFTLTISRLEPEDFAVYYCQQYAASPPFGQGTRLEIK
notes: human IgG mAb
B4: 8C15 (antibody, V domains shown)
VH: QVQLQESGPGLVKPSETLSLTCTVSGGSIRSYYWSWIRQPPGKGLEWIGHIYYSGNTNYSPSLQSRVTISLDTPKNQFSLRLSSVTAADTAVYYCARHDVIVVRGVFDVWGQGTVVTVSS
VL: QSALTQPASVSGSPGQSITISCTGTSSDIGTYNLVSWYQQHPGKAPKVLIYDGSKRPSGVSSRFSASKSGNTASLTISGLQAEDETDYYCCSYAGTSDFFVVFGGGTKLTVL
notes: human IgG mAb; also called 8C15-biotin
B5: 8J16 (antibody, V domains shown)
VH: QVQLQESGPGLVKPSETLSLTCSVSGGFTSSYYWSWIRQAPGKGLEWIGYVYYGESTDYNPSLKSRATISIDTSKNQFSLKLSSVTAADTAVYYCAREVDKRGFDYWGQGALVTVSS
VL: EIVLTQSPGTLSLSPGERATLSCRASQSVSGGYLAWYQQEPGQAPRLVIYGASSRATGIPDRFSASGSGTDFTLTITRLEPEDFAVYYCQQYGRTPLTFGGGTKVEIK
notes: human IgG mAb; also called 8J16-biotin
B6: 9I6 (antibody, V domains shown)
VH: EVQLVQSGAEVKKPGESLKISCRESGDTFPAYWIAWVRQMPGKGLEWMGIIYPIDSETTYSPSFQGQVTISADKSINTAYLQWSSLKASDSAIYYCARGTSTGLREAFHIWGQGTMVTVSS
VL: DVVMTQSPLSLAVTLGQPAYISCRSSQSLGYSDGNTYLNWFQQRPGQSPRRLIYEVSNRDSGVPDRFSGSGSGTDFTLKISRVEAEDVGTYYCMQGTHWPPMCSFGQGTKLEIK
notes: human IgG mAb; also called 9I6-biotin; 916

Tests used:
[1] = target: T1, hCMV gH, gL, UL128, UL130 and UL131A co-expressed in HEK293T cells (human cytomegalovirus, UniProt P12824 24-743; P16832 31-278; P16837 1-171; P16772 1-214); experiment: cell cross-competition, 20x excess; competitor 2F4-biotin
T1 construct: whole, on cells; also called gH + gL + UL128 + UL130 + UL131A; gH/gL/UL128-130 complex

[2] = target: T2, hCMV UL128, UL130 and UL131A co-expressed in HEK293T cells (human cytomegalovirus, UniProt P16837 1-171; P16772 1-214); experiment: cell-based or functional assay
T2 sequence (P16837 whole entry, chain 1 of 2): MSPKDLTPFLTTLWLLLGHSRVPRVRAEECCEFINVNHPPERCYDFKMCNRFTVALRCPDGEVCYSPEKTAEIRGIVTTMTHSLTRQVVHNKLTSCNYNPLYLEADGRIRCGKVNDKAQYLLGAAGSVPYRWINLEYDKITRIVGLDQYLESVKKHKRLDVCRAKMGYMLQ
T2 sequence (P16772 whole entry, chain 2 of 2): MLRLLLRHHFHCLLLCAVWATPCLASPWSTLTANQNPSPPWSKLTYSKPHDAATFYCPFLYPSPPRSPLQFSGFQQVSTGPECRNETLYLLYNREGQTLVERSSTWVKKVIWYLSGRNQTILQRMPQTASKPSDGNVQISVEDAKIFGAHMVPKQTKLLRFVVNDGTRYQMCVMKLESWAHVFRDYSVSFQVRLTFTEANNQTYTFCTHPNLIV

[3] = target: T1, hCMV gH, gL, UL128, UL130 and UL131A …; experiment: cell cross-competition, 20x excess; competitor 8I21-biotin
[4] = target: T1, hCMV gH, gL, UL128, UL130 and UL131A …; experiment: cell cross-competition, 20x excess; competitor 8C15-biotin
[5] = target: T1, hCMV gH, gL, UL128, UL130 and UL131A …; experiment: cell cross-competition, 20x excess; competitor 1F11-biotin
[6] = target: T1, hCMV gH, gL, UL128, UL130 and UL131A …; experiment: cell cross-competition, 20x excess; competitor 9I6-biotin
[7] = target: T1, hCMV gH, gL, UL128, UL130 and UL131A …; experiment: cell cross-competition, 20x excess; competitor 4I22-biotin
[8] = target: T1, hCMV gH, gL, UL128, UL130 and UL131A …; experiment: cell cross-competition, 20x excess; competitor 8J16-biotin
[9] = target: T1, hCMV gH, gL, UL128, UL130 and UL131A …; experiment: cell cross-competition, 20x excess; competitor 2C12-biotin
[10] = target: T1, hCMV gH, gL, UL128, UL130 and UL131A …; experiment: cell cross-competition, 20x excess; competitor 4N10-biotin
[11] = target: T1, hCMV gH, gL, UL128, UL130 and UL131A …; experiment: cell cross-competition, 20x excess; competitor 5A2-biotin
[12] = target: T1, hCMV gH, gL, UL128, UL130 and UL131A …; experiment: cell cross-competition, 20x excess; competitor 6G4-biotin
[13] = target: T1, hCMV gH, gL, UL128, UL130 and UL131A …; experiment: cell cross-competition, 20x excess; competitor 10F7-biotin
[14] = target: T2, hCMV UL128, UL130 and UL131A …; experiment: cell-based or functional assay; remark: listed apart in the source
[15] = target: T1, hCMV gH, gL, UL128, UL130 and UL131A …; experiment: cell cross-competition, 20x excess; competitor 15D8-biotin

Binder	Inhibition of binding (%) [1] [%]	90% Neutralization ARPE (hCMV VR1814) [2] [µg/mL]	90% Neutralization MRC-9 (hCMV VR1814) [2] [µg/mL]	Inhibition of binding (%) [3] [%]	Inhibition of binding (%) [4] [%]	Inhibition of binding (%) [5] [%]	Inhibition of binding (%) [6] [%]	Inhibition of binding (%) [7] [%]	Inhibition of binding (%) [8] [%]	Inhibition of binding (%) [9] [%]	Inhibition of binding (%) [10] [%]	Inhibition of binding (%) [11] [%]	Inhibition of binding (%) [12] [%]	Inhibition of binding (%) [13] [%]	50% Neutralization ARPE (hCMV VR1814) [14] [µg/mL]	50% Neutralization MRC-9 (hCMV VR1814) [14] [µg/mL]	Inhibition of binding (%) [15] [%]
B1	0	0.006	> 10	0	100	0	100	0	100	100	0	0	100	0	< 0.01	≤ 2	0
B2		0.003	> 10	0	100		100		100	100			100		< 0.001	> 2	
B3		0.008	> 10	0	0	0	0		0	0			0		< 0.01	> 2	
B4		0.0025	> 10	0	100		100	0	100	100			100		< 0.001	> 2	
B5	0	0.0008	> 10	0	100	0	70	0	100	100			100		< 0.001	> 2	
B6	0	0.0007	> 10	0	100	0	100	0	100	100			100		< 0.001	> 2	

From patent US20100092481A1 (INSTITUTE FOR RESEARCH IN BIOMEDICINE, published 2010)
